# Laboratory results taken from publication PMC4482781 (Nature neuroscience, 2015).
# How the values were obtained:
# [1] = test system: AD–derived endothelial monolayers; assay: Aβ transcytosis across AD–derived endothelial monolayers; format: in vitro ADME, human; conditions: Aβ40 (1 nM) per Fig. 8b
# [2] = test system: primary human brain endothelial cells (BEC); assay: Colocalization of Aβ–LRP1 complex with PICALM by immunostaining in BEC; format: cell-based; conditions: 250 nM, 30 s
Substance,Aβ transport improved by co–transfer of PICALM and LRP1 mini–gene [1],Aβ transcytosis improved by adenoviral–mediated transfer of PICALM ([1]; compared to GFP control),colocalized Aβ–LRP1/PICALM puncta [2]
"Aβ: amyloid β–peptide, isoform not named at the place; Aβ40 (1 nM) by legend of Fig. 8",89%,63%,
"FAM–Aβ42: 6-carboxyfluorescein-labeled Aβ42, Anaspec catalog # 23526",,,rapid increase
